According to PMC4598761, “Co-Expression of NEU2 and GBA3 Causes a Drastic Reduction in Cytosolic Sialyl Free N-glycans in Human MKN45 Stomach Cancer Cells—Evidence for the Physical Interaction of NEU2 and GBA3” (Biomolecules, 2015):

Target: T1, His-GBA3-HA (recombinant epitope-tagged cytosolic β-glycosidase GBA3) (human, UniProt Q9H227 1-469)
T1 construct: GBA3, cytosolic β-glycosidase, human; Construct pDEST17-His-GBA3-HA; also called β-galactosidase/β-glucosidase; source: E. coli BL21(AI), purified (Ni-Sepharose 6 Fast Flow); not shown: His6, N-terminal, kept; HA, C-terminal, kept
T1 sequence (looked up): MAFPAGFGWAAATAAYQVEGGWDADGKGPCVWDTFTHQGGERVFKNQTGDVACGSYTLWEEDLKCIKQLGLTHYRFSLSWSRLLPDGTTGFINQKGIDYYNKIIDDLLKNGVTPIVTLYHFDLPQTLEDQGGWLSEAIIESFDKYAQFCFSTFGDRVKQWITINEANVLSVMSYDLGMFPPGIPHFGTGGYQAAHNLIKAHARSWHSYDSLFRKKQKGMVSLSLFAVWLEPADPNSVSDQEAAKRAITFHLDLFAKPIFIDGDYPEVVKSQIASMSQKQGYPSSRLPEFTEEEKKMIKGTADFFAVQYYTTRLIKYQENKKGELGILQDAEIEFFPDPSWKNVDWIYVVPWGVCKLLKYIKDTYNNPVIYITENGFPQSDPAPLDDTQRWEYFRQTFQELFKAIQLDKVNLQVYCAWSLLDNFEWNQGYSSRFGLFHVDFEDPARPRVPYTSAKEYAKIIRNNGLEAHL
Test: pull-down; purified recombinant proteins mixed overnight at 4 °C (1.5 mg/mL each), precipitated with 20 μL Ni-Sepharose 6 Fast Flow for 1 h at 4 °C (His-tagged protein held), washed three times with PBS, western blotting
Settings: both partners purified

B1: GST-NEU2 (recombinant cytosolic sialidase NEU2) (enzyme, human, UniProt Q9Y3R4 1-380, looked up)
chain: MASLPVLQKESVFQSGAHAYRIPALLYLPGQQSLLAFAEQRASKKDEHAELIVLRRGDYDAPTHQVQWQAQEVVAQARLDGHRSMNPCPLYDAQTGTLFLFFIAIPGQVTEQQQLQTRANVTRLCQVTSTDHGRTWSSPRDLTDAAIGPAYREWSTFAVGPGHCLQLHDRARSLVVPAYAYRKLHPIQRPIPSAFCFLSHDHGRTWARGHFVAQDTLECQVAEVETGEQRVVTLNARSHLRARVQAQSTNDGLDFQESQLVKKLVEPPPQGCQGSVISFPSPRSGPGSPAQWLLYTHPTHSWQRADLGAYLNPRPPAPEAWSEPVLLAKGSCAYSDLQSMGTGPDGSPLFGCLYEANDYEEIVFLMFTLKQAFPAEYLPQ
notes: NEU2, cytosolic sialidase; source: E. coli BL21(DE3), purified (Glutathione Sepharose 4B)
**Q.** Does B1 bind?
**A.** binds
